Laboratory results published in patent publication US10227388B2, “Peptides and combination of peptides for use in immunotherapy against non-small cell lung cancer and other cancers” (immatics biotechnologies GmbH, priority 2015, dated 2019).

Molecular target: HLA-A*02:01 (Homo sapiens, UniProt P04439, D140Y/D185E/D98H/E176V/E277Q/G131W/G231S/I119V/I121R/I166T/I218V/L300P/L318F/N151K/N90K/P208A/P217A/Q86G/Q94H/R138H/R169H/T345S)
Assay: MHC binding assay (UV-ligand exchange, ELISA, peptide exchange yield)
Details: binding of HLA-class I restricted peptides to HLA-A*02:01
Procedure, shortened: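 Exchange yield was quantified as stabilized β2m-containing complex: monomers diluted 100-fold bound to streptavidin-coated wells, probed with HRP-conjugated anti-β2m, read at 450 nm after TMB. Complexes had been generated by UV cleavage of a photolabile ligand and replacement with the candidate peptide.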

Row | Substance | Peptide exchange (MHC class I binding score, peptide exchange yield)
1 | 184 (YLMDINGKMWL; listed as Homo sapiens) [compound 184] | ″+++″ (≥50% = +++)
2 | 186 (TLFFQQNAL; listed as Homo sapiens) [compound 186] | ″++″ (≥20% = ++)
3 | 187 (RQISIRGIVGV; listed as Homo sapiens) [compound 187] | ″+++″ (≥50% = +++)
4 | 188 (GLFPVTPEAV; listed as Homo sapiens) [compound 188] | ″+++″ (≥50% = +++)
5 | 189 (ALQRKLPYV; listed as Homo sapiens) [compound 189] | ″+++″ (≥50% = +++)
6 | 191 (LLQEGQALEYV; listed as Homo sapiens) [compound 191] | ″++″ (≥20% = ++)
7 | 192 (KMLDGASFTL; listed as Homo sapiens) [compound 192] | ″+++″ (≥50% = +++)
8 | 193 (QLLDADGFLNV; listed as Homo sapiens) [compound 193] | ″+++″ (≥50% = +++)
9 | 200 (LLFGSVQEV; listed as Homo sapiens) [compound 200] | ″+++″ (≥50% = +++)
10 | 201 (RLVDYLEGI; listed as Homo sapiens) [compound 201] | ″+++″ (≥50% = +++)
11 | 202 (ALLDQQGSRWTL; listed as Homo sapiens) [compound 202] | ″+++″ (≥50% = +++)
12 | 204 (KIAENVEEV; listed as Homo sapiens) [compound 204] | ″++″ (≥20% = ++)
13 | 208 (KISPVTFSV; listed as Homo sapiens) [compound 208] | ″+++″ (≥50% = +++)
14 | 216 (NLWEDPYYL; listed as Homo sapiens) [compound 216] | ″+++″ (≥50% = +++)
15 | 219 (KLSDIGITV; listed as Homo sapiens) [compound 219] | ″+++″ (≥50% = +++)
16 | 222 (NLIENVQRL; listed as Homo sapiens) [compound 222] | ″++″ (≥20% = ++)
17 | 223 (ALLENIALYL; listed as Homo sapiens) [compound 223] | ″+++″ (≥50% = +++)
18 | 225 (SLLKVLPAL; listed as Homo sapiens) [compound 225] | ″+++″ (≥50% = +++)
19 | 226 (MLYVVPIYL; listed as Homo sapiens) [compound 226] | ″++″ (≥20% = ++)
20 | 230 (ILVDWLVEV; listed as Homo sapiens) [compound 230] | ″+″ (≥10% = +)
21 | 231 (FLSPQQPPLLL; listed as Homo sapiens) [compound 231] | ″++″ (≥20% = ++)
22 | 236 (GLLEAKVSL; listed as Homo sapiens) [compound 236] | ″+++″ (≥50% = +++)
23 | 240 (ILLEQAFYL; listed as Homo sapiens) [compound 240] | ″+++″ (≥50% = +++)
24 | 241 (SLVEVNPAYSV; listed as Homo sapiens) [compound 241] | ″+++″ (≥50% = +++)
25 | 242 (AIAYILQGV; listed as Homo sapiens) [compound 242] | ″++″ (≥20% = ++)
26 | 243 (LLLNELPSV; listed as Homo sapiens) [compound 243] | ″+++″ (≥50% = +++)
27 | 245 (SMIDDLLGV; listed as Homo sapiens) [compound 245] | ″+++″ (≥50% = +++)
28 | 251 (ALYTGFSILV; listed as Homo sapiens) [compound 251] | ″++″ (≥20% = ++)
29 | 252 (LLIGTDVSL; listed as Homo sapiens) [compound 252] | ″+++″ (≥50% = +++)

Continued, values first:

Row | Peptide exchange (MHC class I binding score, peptide exchange yield) | Substance
30 | ″+++″ (≥50% = +++) | 183 (FGLDLVTEL; listed as Homo sapiens) [compound 183]
31 | ″++″ (≥20% = ++) | 185 (FLIDDKGYTL; listed as Homo sapiens) [compound 185]
32 | ″+++″ (≥50% = +++) | 190 (FLSSLTETI; listed as Homo sapiens) [compound 190]
33 | ″+++″ (≥50% = +++) | 194 (ALPLFVITV; listed as Homo sapiens) [compound 194]
34 | ″+++″ (≥50% = +++) | 195 (GLFADLLPRL; listed as Homo sapiens) [compound 195]
35 | ″++++″ (≥75% = ++++) | 196 (YLYSVEIKL; listed as Homo sapiens) [compound 196]
36 | ″++″ (≥20% = ++) | 197 (ALGPEGGRV; listed as Homo sapiens) [compound 197]
37 | ″+++″ (≥50% = +++) | 198 (KTINKVPTV; listed as Homo sapiens) [compound 198]
38 | ″+++″ (≥50% = +++) | 205 (SLYPGTETMGL; listed as Homo sapiens) [compound 205]
39 | ″+++″ (≥50% = +++) | 206 (VLQEGKLQKLAQL; listed as Homo sapiens) [compound 206]
40 | ″++″ (≥20% = ++) | 207 (GLTSTNAEV; listed as Homo sapiens) [compound 207]
41 | ″++″ (≥20% = ++) | 209 (KLIESKHEV; listed as Homo sapiens) [compound 209]
42 | ″++″ (≥20% = ++) | 210 (LLLNAVLTV; listed as Homo sapiens) [compound 210]
43 | ″++″ (≥20% = ++) | 211 (LLWPGAALL; listed as Homo sapiens) [compound 211]
44 | ″++″ (≥20% = ++) | 212 (ALWDQDNLSV; listed as Homo sapiens) [compound 212]
45 | ″+++″ (≥50% = +++) | 214 (FLLDLDPLLL; listed as Homo sapiens) [compound 214]
46 | ″+++″ (≥50% = +++) | 215 (QLINHLHAV; listed as Homo sapiens) [compound 215]
47 | ″++″ (≥20% = ++) | 217 (ALIHPVSTV; listed as Homo sapiens) [compound 217]
48 | ″++″ (≥20% = ++) | 218 (SALEELVNV; listed as Homo sapiens) [compound 218]

Row | Peptide exchange (MHC class I binding score, peptide exchange yield) | Substance
49 | ″++″ (≥20% = ++) | 220 (LLQKFVPEI; listed as Homo sapiens) [compound 220]
50 | ″++″ (≥20% = ++) | 221 (ALYEEGLLL; listed as Homo sapiens) [compound 221]
51 | ″+++″ (≥50% = +++) | 224 (TLIDAQWVL; listed as Homo sapiens) [compound 224]
52 | ″++″ (≥20% = ++) | 227 (ALMNTLLYL; listed as Homo sapiens) [compound 227]
53 | ″++″ (≥20% = ++) | 228 (AMQEYIAVV; listed as Homo sapiens) [compound 228]
54 | ″++″ (≥20% = ++) | 229 (RLPGPLGTV; listed as Homo sapiens) [compound 229]
55 | ″++″ (≥20% = ++) | 232 (ALLEAQDVELYL; listed as Homo sapiens) [compound 232]
56 | ″++″ (≥20% = ++) | 233 (VLSETLYEL; listed as Homo sapiens) [compound 233]
57 | ″++″ (≥20% = ++) | 234 (ALMEDTGRQML; listed as Homo sapiens) [compound 234]
58 | ″++++″ (≥75% = ++++) | 235 (YLNDLHEVLL; listed as Homo sapiens) [compound 235]
59 | ″++++″ (≥75% = ++++) | 237 (ALLEASGTLLL; listed as Homo sapiens) [compound 237]
60 | ″+++″ (≥50% = +++) | 238 (YLISFQTHI; listed as Homo sapiens) [compound 238]
61 | ″+++″ (≥50% = +++) | 239 (AAFAGKLLSV; listed as Homo sapiens) [compound 239]
62 | ″+++″ (≥50% = +++) | 244 (SLFGGTEITI; listed as Homo sapiens) [compound 244]
63 | ″+++″ (≥50% = +++) | 246 (LLWEVVSQL; listed as Homo sapiens) [compound 246]
64 | ″+++″ (≥50% = +++) | 248 (FLFPNQYVDV; listed as Homo sapiens) [compound 248]
65 | ″+++″ (≥50% = +++) | 249 (LLDGFLVNV; listed as Homo sapiens) [compound 249]
66 | ″+++″ (≥50% = +++) | 250 (ALSEEGLLVYL; listed as Homo sapiens) [compound 250]
